Reference: patent US20240261333A1 (published 2024)

Columns and labels:
Experiment in all cases: anti-FLAG co-IP from lysate of N-FLAG B3GNT2 cells, mass spectrometry
[1] = molecular target: T1, NTPCR (human, UniProt Q9BSD7 2-190)
T1 construct: also called NP_001316381.1 (+2)
T1 sequence (looked up): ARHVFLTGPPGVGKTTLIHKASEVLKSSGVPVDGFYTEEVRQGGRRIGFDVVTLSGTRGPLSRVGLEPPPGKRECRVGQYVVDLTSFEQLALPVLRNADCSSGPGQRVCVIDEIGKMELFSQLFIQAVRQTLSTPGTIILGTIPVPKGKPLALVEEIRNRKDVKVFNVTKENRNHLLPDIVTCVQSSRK
Description: (§1) Cells were plated in 10-cm cell culture dishes and grown to 60-80% confluency. For each condition, two biological replicates were harvested for co-IP. Cells were washed with PBS and 4 mL of lysis buffer (20 mM HEPES, 1% Triton X-100, 150 mM NaCl, 1 mM EDTA, and 10% glycerol) containing protease inhibitor cocktail was added. Cells were scraped and lysate was incubated at 4° C. under rotary agitation for 1 h. Lysate was centrifuged at 14,000×g for 10 min at 4° C. Supernatant was transferred to a new tube and an aliquot was taken as the input. […] For Western blots, 10 μg/mL Chicken Anti-FLAG (Aves labs ET-DY100) and IgY control (R&D Systems AB-101-C) antibodies were biotinylated (Thermo Fisher Scientific 90407) and added to the respective conditions. Lysates with antibodies were incubated at 4° C. under rotary agitation overnight. For each mL of lysate, 50 μL of Pierce Protein A/G Magnetic Beads (Mass spectrometry; Thermo Fisher Scientific 88803) or Pierce Streptavidin Magnetic Beads (Western blot; Thermo Fisher Scientific 88817) was washed twice with lysis buffer. Lysates with antibodies were added to the beads and incubated at 4° C. under rotary agitation for 4 h. Beads were washed with lysis buffer 3 times and resuspended in lysis buffer for storage.
(§2) Magnetic beads were resuspended in 100 mM Tris pH 7.8, reduced, alkylated and digested with trypsin at 37° ° C. overnight. This solution was subjected to solid phase extraction to concentrate the peptides and remove unwanted reagents followed by injection onto a Shimadzu HPLC with fraction collector. Eight fractions were collected and after concentration were injected on a Waters NanoAcquity HPLC equipped with a self-packed Aeris 3 μm C18 analytical column 0.075 mm by 20 cm, (Phenomenex). Peptides were eluted using standard reverse-phase gradients. The effluent from the column was analyzed using a Thermo Orbitrap Elite mass spectrometer (nanospray configuration) operated in a data dependent manner for 54 minutes. The resulting fragmentation spectra were correlated against the known database using Proteome Discover 1.4 (Thermo Fisher Scientific).

[2] = molecular target: T2, SLC25A22 (human, UniProt Q9H936 1-323)
T2 construct: also called NP_001177990.1
T2 sequence (looked up): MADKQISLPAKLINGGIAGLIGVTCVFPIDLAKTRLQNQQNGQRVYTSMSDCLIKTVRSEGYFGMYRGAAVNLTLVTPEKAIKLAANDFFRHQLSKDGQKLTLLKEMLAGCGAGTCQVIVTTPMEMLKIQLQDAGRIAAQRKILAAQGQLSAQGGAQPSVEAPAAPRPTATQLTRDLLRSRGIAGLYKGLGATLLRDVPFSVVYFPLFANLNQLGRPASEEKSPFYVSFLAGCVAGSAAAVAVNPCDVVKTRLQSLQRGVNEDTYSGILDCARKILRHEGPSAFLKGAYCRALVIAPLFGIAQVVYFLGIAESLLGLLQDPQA
Description: as §1, §2

[3] = molecular target: T3, KTN1 (human, UniProt Q86UP2 1-1357)
T3 construct: also called NP_001072989.1 (+5)
T3 sequence (looked up): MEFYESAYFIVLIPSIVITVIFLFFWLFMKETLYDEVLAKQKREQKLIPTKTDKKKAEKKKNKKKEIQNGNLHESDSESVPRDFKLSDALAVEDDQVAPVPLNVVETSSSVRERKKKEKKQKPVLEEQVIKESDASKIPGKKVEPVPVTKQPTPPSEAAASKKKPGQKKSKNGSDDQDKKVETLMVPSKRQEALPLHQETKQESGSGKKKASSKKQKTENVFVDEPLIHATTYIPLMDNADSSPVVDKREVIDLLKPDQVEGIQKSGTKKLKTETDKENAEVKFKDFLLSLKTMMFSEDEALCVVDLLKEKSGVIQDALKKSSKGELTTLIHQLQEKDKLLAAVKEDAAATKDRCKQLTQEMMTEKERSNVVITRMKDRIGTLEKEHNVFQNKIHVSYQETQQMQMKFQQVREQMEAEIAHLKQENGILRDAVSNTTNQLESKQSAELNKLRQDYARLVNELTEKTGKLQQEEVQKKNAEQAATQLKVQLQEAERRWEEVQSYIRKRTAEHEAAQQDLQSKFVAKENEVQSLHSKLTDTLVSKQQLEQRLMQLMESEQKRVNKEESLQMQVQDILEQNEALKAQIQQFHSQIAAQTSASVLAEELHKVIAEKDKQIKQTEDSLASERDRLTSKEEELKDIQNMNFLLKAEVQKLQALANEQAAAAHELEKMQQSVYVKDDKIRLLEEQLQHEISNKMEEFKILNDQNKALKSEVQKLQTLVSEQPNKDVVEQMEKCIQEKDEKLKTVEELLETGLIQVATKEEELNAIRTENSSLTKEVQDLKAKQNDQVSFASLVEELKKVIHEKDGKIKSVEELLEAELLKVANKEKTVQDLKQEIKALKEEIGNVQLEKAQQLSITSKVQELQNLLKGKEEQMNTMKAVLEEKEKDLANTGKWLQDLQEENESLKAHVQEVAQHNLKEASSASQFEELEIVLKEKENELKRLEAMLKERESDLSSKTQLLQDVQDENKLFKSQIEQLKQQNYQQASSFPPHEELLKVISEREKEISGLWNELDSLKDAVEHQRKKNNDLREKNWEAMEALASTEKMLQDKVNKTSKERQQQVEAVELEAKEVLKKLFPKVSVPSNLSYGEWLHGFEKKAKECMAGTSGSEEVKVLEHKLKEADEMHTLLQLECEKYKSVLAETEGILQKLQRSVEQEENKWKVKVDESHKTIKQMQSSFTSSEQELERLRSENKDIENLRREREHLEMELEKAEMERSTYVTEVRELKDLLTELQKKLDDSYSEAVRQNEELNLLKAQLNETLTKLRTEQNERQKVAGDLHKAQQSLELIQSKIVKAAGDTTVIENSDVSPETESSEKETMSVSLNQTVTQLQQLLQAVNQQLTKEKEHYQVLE
Description: as §1, §2

co-IP mass spectrometry count [1]: 0
co-IP mass spectrometry count [2]: 0
co-IP mass spectrometry count [3]: 0
B1: N-terminal FLAG tagged B3GNT2 (enzyme, human, UniProt Q9NY97 1-397, looked up)
chain: MSVGRRRIKLLGILMMANVFIYFIMEVSKSSSQEKNGKGEVIIPKEKFWKISTPPEAYWNREQEKLNRQYNPILSMLTNQTGEAGRLSNISHLNYCEPDLRVTSVVTGFNNLPDRFKDFLLYLRCRNYSLLIDQPDKCAKKPFLLLAIKSLTPHFARRQAIRESWGQESNAGNQTVVRVFLLGQTPPEDNHPDLSDMLKFESEKHQDILMWNYRDTFFNLSLKEVLFLRWVSTSCPDTEFVFKGDDDVFVNTHHILNYLNSLSKTKAKDLFIGDVIHNAGPHRDKKLKYYIPEVVYSGLYPPYAGGGGFLYSGHLALRLYHITDQVHLYPIDDVYTGMCLQKLGLVPEKHKGFRTFDIEEKNKNNICSYVDLMLVHSRKPQEMIDIWSQLQSAHLKC
notes: Bait of the co-IP; pulled down from cell lysate with mouse anti-FLAG antibody; also called N-FLAG B3GNT2; N-term FLAG; not shown: N-terminal FLAG tag
